Like-named read-outs stand apart in the source and are kept apart here. *1 amine or outer side, *2 acyl side, *3 side chain or, on linkers, in order; H or OH if unused. Where no end group is shown, it is not given here. Side-chain parts run from the residue outwards. [ ]: non-standard residue; d: D form. The star is where a group is joined. Isobutyryl(2-imidazol-4-yl) = CC(C)(C(=O)*)c1c[nH]cn1; γGlu = O=C(O)[C@H](CCC(=O)[*:2])N[*:1]; Palmitoyl = CCCCCCCCCCCCCCCC(=O)*; Lauroyl = CCCCCCCCCCCC(=O)*; 40K‑TE = not defined here; Ac3c = NC1(C(=O)O)CC1; Aib = CC(C)(N)C(=O)O
T1: GIP receptor (UniProt P48546 22-466, limits assumed)
T1 sequence (looked up): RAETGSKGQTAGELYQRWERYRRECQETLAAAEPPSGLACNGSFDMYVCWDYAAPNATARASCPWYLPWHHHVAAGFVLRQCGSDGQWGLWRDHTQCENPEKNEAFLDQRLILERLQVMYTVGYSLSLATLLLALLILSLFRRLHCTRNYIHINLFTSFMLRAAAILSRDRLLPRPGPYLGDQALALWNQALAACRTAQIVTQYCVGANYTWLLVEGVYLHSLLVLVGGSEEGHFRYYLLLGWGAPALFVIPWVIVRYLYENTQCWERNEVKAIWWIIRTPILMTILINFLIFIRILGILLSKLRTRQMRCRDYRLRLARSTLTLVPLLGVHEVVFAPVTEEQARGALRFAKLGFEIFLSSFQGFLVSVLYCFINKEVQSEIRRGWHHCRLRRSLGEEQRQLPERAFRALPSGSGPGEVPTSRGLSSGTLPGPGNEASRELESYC

B1: peptide of SEQ ID NO: 79 (peptide)
peptide: H[Aib]QGTFTSDK([γGlu-Palmitoyl])SKYLDERRA[Aib]EFVQWLLDGGPSSGAPPPS-NH2
modifications: N-terminus assumed
SMILES: CCCCCCCCCCCCCCCC(=O)N[C@@H](CCC(=O)NCCCC[C@H](NC(=O)[C@H](CC(=O)O)NC(=O)[C@H](CO)NC(=O)[C@@H](NC(=O)[C@H](Cc1ccccc1)NC(=O)[C@@H](NC(=O)CNC(=O)[C@H](CCC(N)=O)NC(=O)C(C)(C)NC(=O)[C@@H](N)Cc1c[nH]cn1)[C@@H](C)O)[C@@H](C)O)C(=O)N[C@@H](CO)C(=O)N[C@@H](CCCCN)C(=O)N[C@@H](Cc1ccc(O)cc1)C(=O)N[C@@H](CC(C)C)C(=O)N[C@@H](CC(=O)O)C(=O)N[C@@H](CCC(=O)O)C(=O)N[C@@H](CCCNC(=N)N)C(=O)N[C@@H](CCCNC(=N)N)C(=O)N[C@@H](C)C(=O)NC(C)(C)C(=O)N[C@@H](CCC(=O)O)C(=O)N[C@@H](Cc1ccccc1)C(=O)N[C@H](C(=O)N[C@@H](CCC(N)=O)C(=O)N[C@@H](Cc1c[nH]c2ccccc12)C(=O)N[C@@H](CC(C)C)C(=O)N[C@@H](CC(C)C)C(=O)N[C@@H](CC(=O)O)C(=O)NCC(=O)NCC(=O)N1CCC[C@H]1C(=O)N[C@@H](CO)C(=O)N[C@@H](CO)C(=O)NCC(=O)N[C@@H](C)C(=O)N1CCC[C@H]1C(=O)N1CCC[C@H]1C(=O)N1CCC[C@H]1C(=O)N[C@@H](CO)C(N)=O)C(C)C)C(=O)O
B2: peptide of SEQ ID NO: 80 (peptide)
peptide: H[Aib]EGTFTSDK([γGlu-Palmitoyl])SKYLDERAAQDFVQWLLDGGPSSGAPPPS-NH2
modifications: N-terminus assumed
SMILES: CCCCCCCCCCCCCCCC(=O)N[C@@H](CCC(=O)NCCCC[C@H](NC(=O)[C@H](CC(=O)O)NC(=O)[C@H](CO)NC(=O)[C@@H](NC(=O)[C@H](Cc1ccccc1)NC(=O)[C@@H](NC(=O)CNC(=O)[C@H](CCC(=O)O)NC(=O)C(C)(C)NC(=O)[C@@H](N)Cc1c[nH]cn1)[C@@H](C)O)[C@@H](C)O)C(=O)N[C@@H](CO)C(=O)N[C@@H](CCCCN)C(=O)N[C@@H](Cc1ccc(O)cc1)C(=O)N[C@@H](CC(C)C)C(=O)N[C@@H](CC(=O)O)C(=O)N[C@@H](CCC(=O)O)C(=O)N[C@@H](CCCNC(=N)N)C(=O)N[C@@H](C)C(=O)N[C@@H](C)C(=O)N[C@@H](CCC(N)=O)C(=O)N[C@@H](CC(=O)O)C(=O)N[C@@H](Cc1ccccc1)C(=O)N[C@H](C(=O)N[C@@H](CCC(N)=O)C(=O)N[C@@H](Cc1c[nH]c2ccccc12)C(=O)N[C@@H](CC(C)C)C(=O)N[C@@H](CC(C)C)C(=O)N[C@@H](CC(=O)O)C(=O)NCC(=O)NCC(=O)N1CCC[C@H]1C(=O)N[C@@H](CO)C(=O)N[C@@H](CO)C(=O)NCC(=O)N[C@@H](C)C(=O)N1CCC[C@H]1C(=O)N1CCC[C@H]1C(=O)N1CCC[C@H]1C(=O)N[C@@H](CO)C(N)=O)C(C)C)C(=O)O
B3: peptide of SEQ ID NO: 81 (peptide)
peptide: Y[Aib]QGTFTSDK([γGlu-γGlu-Palmitoyl])SIYLDKQAA[Aib]EFVNWLLAGGPSSGAPPPS-NH2
modifications: N-terminus assumed
SMILES: CCCCCCCCCCCCCCCC(=O)N[C@@H](CCC(=O)N[C@@H](CCC(=O)NCCCC[C@H](NC(=O)[C@H](CC(=O)O)NC(=O)[C@H](CO)NC(=O)[C@@H](NC(=O)[C@H](Cc1ccccc1)NC(=O)[C@@H](NC(=O)CNC(=O)[C@H](CCC(N)=O)NC(=O)C(C)(C)NC(=O)[C@@H](N)Cc1ccc(O)cc1)[C@@H](C)O)[C@@H](C)O)C(=O)N[C@@H](CO)C(=O)N[C@H](C(=O)N[C@@H](Cc1ccc(O)cc1)C(=O)N[C@@H](CC(C)C)C(=O)N[C@@H](CC(=O)O)C(=O)N[C@@H](CCCCN)C(=O)N[C@@H](CCC(N)=O)C(=O)N[C@@H](C)C(=O)N[C@@H](C)C(=O)NC(C)(C)C(=O)N[C@@H](CCC(=O)O)C(=O)N[C@@H](Cc1ccccc1)C(=O)N[C@H](C(=O)N[C@@H](CC(N)=O)C(=O)N[C@@H](Cc1c[nH]c2ccccc12)C(=O)N[C@@H](CC(C)C)C(=O)N[C@@H](CC(C)C)C(=O)N[C@@H](C)C(=O)NCC(=O)NCC(=O)N1CCC[C@H]1C(=O)N[C@@H](CO)C(=O)N[C@@H](CO)C(=O)NCC(=O)N[C@@H](C)C(=O)N1CCC[C@H]1C(=O)N1CCC[C@H]1C(=O)N1CCC[C@H]1C(=O)N[C@@H](CO)C(N)=O)C(C)C)[C@@H](C)CC)C(=O)O)C(=O)O

Legend:
Assay in all cases: cell-based or functional assay
glucagon receptor [1] = biological target: T2, glucagon receptor (UniProt P47871 26-477, limits assumed)
T2 sequence (P47871 26-477 limits assumed): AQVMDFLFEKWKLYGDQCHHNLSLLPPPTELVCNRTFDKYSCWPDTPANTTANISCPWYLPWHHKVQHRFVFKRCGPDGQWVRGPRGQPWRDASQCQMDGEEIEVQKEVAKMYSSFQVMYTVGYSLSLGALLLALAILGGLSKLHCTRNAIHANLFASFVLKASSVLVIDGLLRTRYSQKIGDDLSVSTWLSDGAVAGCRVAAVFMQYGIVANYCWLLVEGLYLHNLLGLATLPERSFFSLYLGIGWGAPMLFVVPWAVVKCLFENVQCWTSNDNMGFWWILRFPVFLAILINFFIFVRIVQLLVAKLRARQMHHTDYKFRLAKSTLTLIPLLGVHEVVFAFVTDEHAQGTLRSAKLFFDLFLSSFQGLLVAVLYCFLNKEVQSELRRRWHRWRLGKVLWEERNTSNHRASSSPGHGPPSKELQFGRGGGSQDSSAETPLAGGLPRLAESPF

GLP-1 receptor [2] = biological target: T3, GLP-1 receptor (UniProt P43220 24-463, limits assumed)
GIP receptor [3] = biological target: T1, GIP receptor
glucagon receptor [4] = biological target: T2, glucagon receptor; remark: listed apart in the source
GLP-1 receptor [5] = biological target: T3, GLP-1 receptor; remark: listed apart in the source
GIP receptor [6] = biological target: T1, GIP receptor; remark: listed apart in the source

| Binder | EC50 (cAMP reporter) (glucagon receptor [1]) [pM] | EC50 (cAMP reporter) (GLP-1 receptor [2]) [pM] | EC50 (cAMP reporter) (GIP receptor [3]) [nM] | EC50 (cAMP reporter) (glucagon receptor [4]) [nM] | EC50 (cAMP reporter) (GLP-1 receptor [5]) [nM] | EC50 (cAMP reporter) (GIP receptor [6]) [nM] |
| --- | --- | --- | --- | --- | --- | --- |
| H[dS]QGTFTSDKSKYLDERAAQDFVQWLLDGGPSSGAPPPS-NH2 (not fully specified (residue 10)) [Analog No. 29: dSer2, K10acyl, E16, A18, L27, D28, G29 + CEX (SEQ ID NO: 27)] | 3 | 2 | 0.085 | – | – | – |
| H[Aib]QGTFTSDKSKYLDERAAQDFVQWLLDGRG-NH2 (not fully specified (residue 10)) [Analog No. 34: Aib2, K10acyl, E16, A18, L27, D28, GRG29-31 (SEQ ID NO: 29)] | 7 | 3 | 0.064 | – | – | – |
| H[dS]QGTFTSDKSKYLDERRA[Aib]EFVQWLLDT-NH2 (not fully specified (residue 10)) [Analog No. 36: dSer2, K10acyl, E16, Aib20, E21, L27, D28 (SEQ ID NO: 30)] | 8 | 3.1 | 0.25 | – | – | – |
| [Isobutyryl(2-imidazol-4-yl)][dS]QGTFTSDKSKYLDERAAQDFVQWLLDT-NH2 (not fully specified (residue 10)) [Analog No. 44: DMIA1, dSer2, K10acyl, E16, A18, L27, D28 (SEQ ID NO: 32)] | 4 | 3 | 0.103 | – | – | – |
| H[Aib]QGTFTSDKSKYLD[Aib]RAAQDFVQWLMDGGPSSGAPPPS-NH2 (not fully specified (residue 10)) [Analog No. 49: Aib2, K10acyl, Aib16, A10, D28, G29 + CEX (SEQ ID NO: 33)] | 5 | 4 | 0.248 | – | – | – |
| H[Aib]QGTFTSDK(Palmitoyl)SKYLD[Aib]RAAQDFVQWLVKGGPSSGAPPPS-NH2 [Analog No. 53: Aib2, K10acyl, Aib16, A18, V27, K28, G29 + CEX (SEQ ID NO: 35)] | 11 | 5 | 0.073 | – | – | – |
| H[Aib]QGTFTSDKSKYLD[Aib]RAAQDFVQWLKDGGPSSGAPPPS-NH2 (not fully specified (residue 10)) [Analog No. 54: Aib2, K10acyl, Aib16, A18, K27, D28, G29 + CEX (SEQ ID NO: 36)] | 8 | 4 | 0.171 | – | – | – |
| H[Aib]EGTFTSDKSKYLDERRA[Aib]EFVQWLLDT-NH2 (not fully specified (residue 10)) [Analog No. 64: Aib2, E3, K10acyl, E16, Aib20, E21, L27, D28 (SEQ ID NO: 40)] | 42 | 6 | 0.024 | – | – | – |
| H[Aib]EGTFTSDK(Palmitoyl)SKYLDERRA[Aib]DFVQWLLDGGPSSGAPPPS-NH2 [Analog No. 65: Aib2, E3, K10acyl, E16, Aib20, L27, D28, G29 + CEX (SEQ ID NO: 41)] | 221 | 6 | 0.013 | – | – | – |
| YXEGTFTSDYSIYLDKQAAXEFVNWLLAGGPSSGAPPPSC (not fully specified; aib at 2; acpc at 20; C-terminal C(40K-TE); NH2) [peptide of SEQ ID NO: 73] | – | – | – | ~10 | 0.91 | 1.56 |
| H[Aib]QGTFISDYSIYLDKQAA[Ac3c]EFVNWLLAGGPSSGAPPPSC(40K‑TE)-NH2 (not fully specified; reading uncertain) [peptide of SEQ ID NO: 74] | – | – | – | 2.52 | 6.42 | 2.54 |
| Y[Aib]QGTFISDYSIYLDKQAA[Ac3c]EFVNWLLAGGPSSGAPPPSC(40K‑TE)-NH2 (not fully specified; reading uncertain) [peptide of SEQ ID NO: 75] | – | – | – | 3.12 | 17.7 | 2.44 |
| B1 | – | – | – | 0.004 | 0.006 | 0.003 |
| B2 | – | – | – | 1.28 | 0.008 | 0.026 |
| B3 | – | – | – | 0.073 | 0.008 | 0.005 |
| Y[Aib]EGTFTSDYSIYLDKQAA[Aib]EFVNWLLAGGPSSGAPPPSC(PEG 40 kDa)-NH2 [peptide of SEQ ID NO: 175] | – | – | – | 0.62 | 0.066 | 0.1 |
| Y[Aib]QGTFTSDYSIYLDKQAA[Aib]EFVC(40K‑TE PEG)WLLAGGPSSGAPPPSK(C8)-NH2 [peptide of SEQ ID NO: 172] | – | – | – | 3.06 | 0.108 | 0.487 |
| Y[Aib]QGTFTSDYSIYLDKQAA[Aib]EFVC(40K‑TE PEG)WLLAGGPSSGAPPPSK(Lauroyl)-NH2 [peptide of SEQ ID NO: 173] | – | – | – | 0.19 | 0.011 | 0.089 |

Source: patent publication US20120238493A1 (INDIANA UNIVERSITY RESEARCH AND TECHNOLOGY, published 2012)
